Laboratory results taken from publication PMC9531181.

Molecular target: covalently linked hexamer of ClpX-ΔN with a single biotinylation site (ClpX6B)
Test: single-molecule TIRF microscopy (dwell time); ClpX6B (10 nM, preincubated with 2 mM ATP) held by streptavidin on biotinylated BSA on DDS-Tween-20 passivated coverslips; 5 nM of ssrA (Cy3) and ssrADD (Cy5) substrates flowed in with 100 uM MTX, 2 mM ATP, 25 ug/ml BSA, Trolox and oxygen scavenger; ClpX reaction buffer (25 mM Hepes pH 7.4, 100 mM KCl, 20 mM MgCl2, 10% glycerol); 30 °C; dwell times fitted with a single exponential

Substance: cpGFP::DHFR::polyG11::ssrA, MTX-bound
- reduction of dwell time against Ref11: 50%
